From patent US20230002480A1

What was measured:
Test in all cases: cell-based or functional assay
[1] = biological target: HIV-1 Env of pseudovirus 6540.v4.c1 (HIV-1)
[2] = biological target: HIV-1 Env of pseudovirus T255-34 (HIV-1)
[3] = biological target: HIV-1 Env of pseudovirus CNE5 (HIV-1)
[4] = biological target: HIV-1 Env of pseudovirus 3415.v1.c1 (HIV-1)
[5] = biological target: HIV-1 Env of pseudovirus Ce703010054_2A2 (HIV-1)
[6] = biological target: HIV-1 Env of pseudovirus BJOX025000.01.1 (HIV-1)
[7] = biological target: HIV-1 Env of pseudovirus WITO4160.33 (HIV-1)
[8] = biological target: HIV-1 Env of pseudovirus 620345.c01 (HIV-1)
[9] = biological target: HIV-1 Env of pseudovirus CAP210.2.00.E8 (HIV-1)
[10] = biological target: HIV-1 Env of pseudovirus CNE17 (HIV-1)
[11] = biological target: HIV-1 Env of pseudovirus TRO.11 (HIV-1)
[12] = biological target: HIV-1 Env of pseudovirus BJOX010000.06.2 (HIV-1)
[13] = biological target: HIV-1 Env of pseudovirus 1394C9G1(Rev-) (HIV-1)
[14] = biological target: HIV-1 Env of pseudovirus X1193_c1 (HIV-1)
[15] = biological target: HIV-1 Env of pseudovirus X2088_c9 (HIV-1)
[16] = biological target: HIV-1 Env of pseudovirus 6952.v1.c20 (HIV-1)
[17] = biological target: HIV-1 Env of pseudovirus C1080.c03 (HIV-1)
[18] = biological target: HIV-1 Env of pseudovirus 62357_14_D3_4589 (HIV-1)
[19] = biological target: HIV-1 Env of pseudovirus Q461.e2 (HIV-1)
[20] = biological target: HIV-1 Env of pseudovirus 3016.v5.c45 (HIV-1)
[21] = biological target: HIV-1 Env of pseudovirus 1056_10_TA11_1826 (HIV-1)
[22] = biological target: HIV-1 Env of pseudovirus PVO.4 (HIV-1)
[23] = biological target: HIV-1 Env of pseudovirus SC05_8C11_2344 (HIV-1)
[24] = biological target: HIV-1 Env of pseudovirus C3347.c11 (HIV-1)
[25] = biological target: HIV-1 Env of pseudovirus T251-18 (HIV-1)
[26] = biological target: HIV-1 Env of pseudovirus CAP45.2.00.G3 (HIV-1)
[27] = biological target: HIV-1 Env of pseudovirus 191084 B7-19 (HIV-1)
[28] = biological target: HIV-1 Env of pseudovirus P1981_C5_3 (HIV-1)
[29] = biological target: HIV-1 Env of pseudovirus 3301.v1.c24 (HIV-1)
[30] = biological target: HIV-1 Env of pseudovirus 249M B10 (HIV-1)
[31] = biological target: HIV-1 Env of pseudovirus ZM249M.PL1 (HIV-1)
[32] = biological target: HIV-1 Env of pseudovirus Q259.d2.17 (HIV-1)

B1: N49P23 (antibody, V domains shown)
VH: QVRLVQSGAGARKTGASMKLSCSTSGYTFTTHHGHFINWVRQARGQGLEWMGWMNPMTGQMNIEGKFQGRVTLTRDIYSDTAYMEMTRLTTGDTGTYYCARGDFGQNYPFHYWGQGSLVIVSS
VL: LSALTQPASVSGSPGQSVTISCSGTNRYLVSWYQQHPDKAPKLIIYDDNKRPSGISDRFSASRPDDTASLTISGLQTGDEATYWCASYERFGGGTRLTVLS
- IC50 [1]: > 50 µg/mL
- IC80 [1]: > 50 µg/mL
- MPI [1]: 29
- IC50 [2]: > 50 µg/mL
- IC80 [2]: > 50 µg/mL
- MPI [2]: 20
- IC50 [3]: 0.058 µg/mL
- IC80 [3]: 0.226 µg/mL
- MPI [3]: 100
- IC50 [4]: 0.054 µg/mL
- IC80 [4]: 0.19 µg/mL
- MPI [4]: 100
- IC50 [5]: > 50 µg/mL
- IC80 [5]: > 50 µg/mL
- MPI [5]: 35
- IC50 [6]: > 50 µg/mL
- IC80 [6]: > 50 µg/mL
- MPI [6]: 0
- IC50 [7]: 0.045 µg/mL
- IC80 [7]: 0.205 µg/mL
- MPI [7]: 100
- IC50 [8]: > 50 µg/mL
- IC80 [8]: > 50 µg/mL
- MPI [8]: 0
- IC50 [9]: > 50 µg/mL
- IC80 [9]: > 50 µg/mL
- MPI [9]: 2
- IC50 [10]: 0.221 µg/mL
- IC80 [10]: 0.809 µg/mL
- MPI [10]: 100
- IC50 [11]: 0.094 µg/mL
- IC80 [11]: 0.336 µg/mL
- MPI [11]: 100
- IC50 [12]: 0.284 µg/mL
- IC80 [12]: 2.08 µg/mL
- MPI [12]: 100
- IC50 [13]: > 50 µg/mL
- IC80 [13]: > 50 µg/mL
- MPI [13]: 34
- IC50 [14]: 0.008 µg/mL
- IC80 [14]: 0.038 µg/mL
- MPI [14]: 100
- IC50 [15]: > 50 µg/mL
- IC80 [15]: > 50 µg/mL
- MPI [15]: 10
- IC50 [16]: 0.007 µg/mL
- IC80 [16]: 0.023 µg/mL
- MPI [16]: 100
- IC50 [17]: 1.33 µg/mL
- IC80 [17]: 11.3 µg/mL
- MPI [17]: 96
- IC50 [18]: 0.057 µg/mL
- IC80 [18]: 0.76 µg/mL
- MPI [18]: 95
- IC50 [19]: 0.099 µg/mL
- IC80 [19]: 0.464 µg/mL
- MPI [19]: 100
- IC50 [20]: 0.027 µg/mL
- IC80 [20]: 0.092 µg/mL
- MPI [20]: 100
- IC50 [21]: 0.075 µg/mL
- IC80 [21]: 0.483 µg/mL
- MPI [21]: 100
- IC50 [22]: 0.087 µg/mL
- IC80 [22]: 0.43 µg/mL
- MPI [22]: 100
- IC50 [23]: 0.133 µg/mL
- IC80 [23]: 0.548 µg/mL
- MPI [23]: 100
- IC50 [24]: 0.007 µg/mL
- IC80 [24]: 0.032 µg/mL
- MPI [24]: 100
- IC50 [25]: > 50 µg/mL
- IC80 [25]: > 50 µg/mL
- MPI [25]: 18
- IC50 [26]: > 50 µg/mL
- IC80 [26]: > 50 µg/mL
- MPI [26]: 0
- IC50 [27]: 0.013 µg/mL
- IC80 [27]: 0.043 µg/mL
- MPI [27]: 100
- IC50 [28]: 0.096 µg/mL
- IC80 [28]: 0.264 µg/mL
- MPI [28]: 100
- IC50 [29]: 0.017 µg/mL
- IC80 [29]: 0.058 µg/mL
- MPI [29]: 100
- IC50 [30]: > 50 µg/mL
- IC80 [30]: > 50 µg/mL
- MPI [30]: 20
- IC50 [31]: > 50 µg/mL
- IC80 [31]: > 50 µg/mL
- MPI [31]: 2
- IC50 [32]: 0.362 µg/mL
- IC80 [32]: 7.79 µg/mL
- MPI [32]: 91
